From patent US20250092426, “CAS ENDONUCLEASES AND RELATED METHODS” (Flagship Pioneering Innovations VII, LLC, published 2025)

Target: T1, CasEnd-6 (synthetic construct)
T1 chain: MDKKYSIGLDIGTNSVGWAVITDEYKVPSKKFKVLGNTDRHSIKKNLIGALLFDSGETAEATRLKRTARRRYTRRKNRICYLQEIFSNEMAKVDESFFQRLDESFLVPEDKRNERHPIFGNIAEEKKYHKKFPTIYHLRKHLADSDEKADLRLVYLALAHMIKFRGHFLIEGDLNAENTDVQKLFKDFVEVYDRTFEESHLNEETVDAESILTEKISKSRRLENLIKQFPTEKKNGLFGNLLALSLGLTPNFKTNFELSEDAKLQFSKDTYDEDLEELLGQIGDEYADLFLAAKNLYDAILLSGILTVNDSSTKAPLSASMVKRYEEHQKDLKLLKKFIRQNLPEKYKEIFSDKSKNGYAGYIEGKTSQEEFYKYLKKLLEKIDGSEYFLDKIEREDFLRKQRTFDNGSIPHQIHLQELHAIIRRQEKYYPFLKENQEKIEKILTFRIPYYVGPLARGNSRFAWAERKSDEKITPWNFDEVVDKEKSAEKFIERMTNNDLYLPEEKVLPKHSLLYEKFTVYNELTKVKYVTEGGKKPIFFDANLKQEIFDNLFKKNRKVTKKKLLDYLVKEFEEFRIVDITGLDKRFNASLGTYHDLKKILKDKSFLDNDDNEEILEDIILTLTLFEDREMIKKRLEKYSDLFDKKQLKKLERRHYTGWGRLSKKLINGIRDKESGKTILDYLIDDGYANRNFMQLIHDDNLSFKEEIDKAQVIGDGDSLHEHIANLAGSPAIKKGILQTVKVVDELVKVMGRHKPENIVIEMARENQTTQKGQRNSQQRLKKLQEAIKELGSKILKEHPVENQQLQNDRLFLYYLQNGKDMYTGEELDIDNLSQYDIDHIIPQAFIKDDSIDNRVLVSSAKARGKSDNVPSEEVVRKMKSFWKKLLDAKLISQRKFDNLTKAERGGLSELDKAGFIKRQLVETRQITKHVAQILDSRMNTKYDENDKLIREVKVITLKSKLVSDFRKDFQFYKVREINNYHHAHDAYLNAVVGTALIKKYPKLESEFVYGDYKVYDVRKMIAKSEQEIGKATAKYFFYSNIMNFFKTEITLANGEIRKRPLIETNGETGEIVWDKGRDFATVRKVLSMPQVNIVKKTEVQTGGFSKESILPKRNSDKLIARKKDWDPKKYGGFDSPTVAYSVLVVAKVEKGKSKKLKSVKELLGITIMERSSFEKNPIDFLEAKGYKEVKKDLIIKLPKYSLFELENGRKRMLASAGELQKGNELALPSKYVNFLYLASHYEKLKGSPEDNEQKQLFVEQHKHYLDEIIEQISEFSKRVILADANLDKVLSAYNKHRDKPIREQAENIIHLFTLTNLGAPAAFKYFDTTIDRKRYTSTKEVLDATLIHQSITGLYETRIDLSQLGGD
Experiment: cell_activity; +++; HEK293T; PAM not stated
Protocol: The ability of the candidate endonucleases, including endonucleases 1-38 (CasEnds 1-38) (set forth in Table 1 and SEQ ID NOS: 1-38, respectively), to mediate target nucleic acid editing was assessed utilizing a blue fluorescent protein (BFP) to green fluorescent protein (GFP) conversion assay, wherein programmed nucleotide editing of the BFP gene was measured by the expression of GFP (signifying the conversion of […] via the programmed nucleotide edit in the BFP gene). The conversion assay was conducted utilizing the reverse transcriptase-based system (as described above in Example 2) comprising a template RNA (designed to convert BFP to GFP) and a fusion protein comprising a retroviral reverse transcriptase and the individual subject Cas endonuclease. The amino acid sequence of the base portion of the fusion protein (without the individual subject Cas endonuclease) is set forth in Table 7 (SEQ ID NO: 43).
Briefly, 200 ng of plasmid DNA encoding the subject fusion protein (containing one of the subject CasEnds) and 200 ng of template RNA (in plasmid format) were added to 25 μL SF buffer containing 250,000 HEK293T BFP-expressing cells. Nucleofection was mediated utilizing program DS-150. The day of nucleofection was marked as day 0. At day 4, the cells were harvested and analyzed by flow cytometry to assess the level of BFP and GFP expression in HEK293T cells. Cells having GFP signal were defined as having undergone a successful editing event, and the percent of cells that were GFP+ on day 4 was used to determine the performance of each Cas endonuclease.

B1: BFP-to-GFP template RNA ; BFP reporter protospacer (ssRNA ; dsDNA)
RNA: GCCGAAGCACUGCACGCCGUGUUUUAGAGCUAGAAAUAGCAAGUUAAAAUAAGGCUAGUCCGUUAUCAACUUGAAAAAGUGGCACCGAGUCGGUGCACCCUGACGUACGGCGUGCAGUGCUU
DNA 1: GCCGAAGCACTGCACGCCGT
DNA 2: ACGGCGTGCAGTGCTTCGGC
Question: For B1, which activity is on record?
Answer: ≥ 100 % of reference
